Results on five molecules are retold here after US7795386B2, “Peptides comprising an isoDGR motif” (Molmed SpA, priority 2004, dated 2010).

The subject of one series is L-M mouse fibroblasts. As to the kind of experiment: standard cytolytic assay with L-M mouse fibroblasts. The series is classed as cell-based. The following applies: for Cytolytic Activity: in vitro, L-M murine fibroblasts. From the text: Protein purity and identity were checked by SDS-PAGE, electrospray mass spectrometry and gel-filtration chromatography.
The cDNA coding for DGR-TNF (mouse TNF fused with the C-terminus of CDGRCG (SEQ ID NO: 24)) was obtained by PCR on NGR-TNF plasmid, using the following primers: 5′ […] 3′ (SEQ ID NO: 43) (5′ primer); 5′ […] ′3 (SEQ ID NO: 44) (3′ primer). Both primers were designed to allow the directional cloning into a pET101/D-TOPO plasmid expression kit (Invitrogen). The underlined sequence in 5′ primer contains the sequence necessary to enable the directional cloning and the initial translation codon whereas the 3′ primer contains the stop codon (underlined). The PCR reaction and the cloning procedure were performed as recommended by the manufacturer's instruction. […] The column was washed extensively 100 mM Tris-HCl buffer containing pH 8.0, loaded with DGR-TNF crude extract, diluted in 20 mM Tris-HCl buffer conatining 2 mM EDTA pH 8.0, and desorbed by elution with 7 M urea, 100 mM Tris-HCl, pH 8.0. DGR-TNF was then refolded as described (1). Briefly, the denatured products were dialyzed against 2.33 M urea, 100 mM Tris-HCl, pH 8.0 at 4° C. (140 min), followed by 1.55 M urea, 100 mM Tris-HCl, pH 8.0 (140 min), and 1 M urea, 100 mM Tris-HCl, pH 8 (140 min). Finally the products were dialyzed against 100 mM Tris-HCl, pH 8.0 (48 h). The products were centrifuged at 13000×g (10 min, 4° C.) and concentrated by ultra-filtration through a 10 KDa cut-off filter. All solutions used in the purification and refolding steps were prepared with sterile and endotoxin-free water (S.A.L.F. Laboratorio Farmacologico SpA, Bergamo, Italy). Protein concentration was measured using the BCA Protein Assay Reagent (Pierce, Rockford, Ill.). Protein purity and identity were checked by SDS-PAGE, electrospray mass spectrometry (ESI-MS) and analytical gel-filtration chromatography.

The conditions of series [1]: bolus, humans (Fraker et al., 1995); cited from earlier work.
Series [2] has as its target T1, αvβ3 integrin (Homo sapiens, UniProt P05106+P06756).
T1 construct: purchased Immunological Sciences
As to the kind of experiment: direct ELISA binding to purified integrin adsorbed on microtiterplates. The procedure:
(A) Binding of heat-treated CNGRC-TNF and TNF to solid phases coated with purified human integrins. Single concentration (5 μg/ml) or various concentrations (inset) of CNGRC-TNF and TNF were used. Binding was detected with anti-TNF antibodies as described in Materials and Methods.
(B) Binding of biotinylated CNGRC-TNF1-11, CARAC-TNF1-11 and FN-I5 (complexed with streptavidin-peroxidase) to purified human integrins. Binding was detected by chromogenic reaction with o-phenylendiammine.
Human αvβ3, αvβ5, α5β1 and α1β1 integrins solutions, 0.5-2 μg/ml in phosphate buffered saline with Ca^2+ and Mg^2+ (DPBS, Cambrex), were added to 96-well polyvinylchloride microtiter plates (50 μl/well) and left to incubate overnight at 4° C. […] Bound peroxidase was detected by adding o-phenylendiammine chromogenic substrate.
(§1) Binding of biotinylated peptides (CNGRC (SEQ ID NO: 6)-TNF1-11, CARAC (SEQ ID NO: 36)-TNF1-11 and FN-I5) to purified integrins was studied using streptavidin-peroxidase conjugate complexes. Complexes were prepared by mixing various quantities (0.5-1 μg) of heat-treated biotinylated peptides in DPBS containing 3% BSA with 0.03 units of streptavidinperoxidase (binding capacity: 1 μg of biotin/unit of streptavidin-peroxidase) (final volume 15 μl). […] After washing with DPBS, bound peroxidase was detected by chromogenic reaction as described above. […]
In general terms: ELISA stands for enzyme-linked immunosorbent assay.

Series [3] is described as follows: isoaspartate (isoAsp) quantification, ISOQUANT enzymatic assay. The following applies: for isoAsp (%): pmol of isoAsp/pmol of peptide (%). From the text:
IsoAsp content in untreated and “heat treated” CNGRC (SEQ ID NO: 6)—TNF and peptides was quantified by using the ISOQUANT™ Isoaspartate Detection Kit (Promega).

For series [4], the system named is EA.hy926 cells. Description: EA.hy926 cell adhesion assay on coated microtiter plates. Particulars: for EA.hy926 cell adhesion to coated product after heat-treatment: 0.1 M ammonium bicarbonate buffer, pH 8.5, 16 h at 37° C. The series is classed as cell-based, human. How it is done: Adhesion of EA.hy926 cells to microtiter plates coated with various peptides and proteins before and after accelerated aging. Accelerated aging was performed by peptide incubation in 0.1 M ammonium bicarbonate buffer, pH 8.5, for 16 h at 37° C. (“heat-treatment”). Adhesion to: recombinant FN-I4-5 or control protein (FN-I4-5 (SGS)) (A), synthetic FN-I5 (B), recombinant CNGRC-TNF, CNGRC-TNF1-11 and control CARAC-TNF1-11 peptide (C), CDGRC-TNF (D). Heat-treated (37° C.) and untreated (−20° C.) products were adsorbed onto the plastic surface of microtiter wells (overnight at 4° C.). Microphotograph of wells coated with 30 μg/ml of heat-treated FN-I5 or BSA (B, right) or with 10 μg/ml of recombinant CNGRC-TNF or CDGRC-TNF (C, right), ×200. Cell adhesion assay was carried out as described in Materials and Methods. The TNF fusion constructs, including the TNF1-11 fusion constructs, were made as described Materials and Methods, and include a “G” linker.
(§2) Untreated and “heat treated” fibronectin fragments, peptides and peptide-TNF conjugates were diluted at the desired concentration with 150 mM sodium chloride, 50 mM sodium phosphate, pH 7.3, and added to 96-well polyvinyl chloride microtiter plates (Falcon, Becton Dickinson). After overnight incubation at 4° C., the plates were washed, seeded with EA.hy926 cell in DMEM containing 0.1% BSA (40000 cells/well) and left to incubate for 2-3 h at 37° C., 5% CO2. Adherent cells were fixed and stained with crystal violet as described (Curnis et al., 2005).

Series [5] deals with EA.hy926 cells. Description: PIMT treatment of coated products followed by EA.hy926 cell adhesion assay. The series is classed as cell-based, human. Particulars: PIMT 16 h at 37° C. How it is done: Microtiterplates were coated with heat-treated FN-I5 or NGR-TNF (A), or with natural FN-30 KDa, FN-45 KDa or retronectin (RN) (CNGRC disclosed as SEQ ID NO: 6) (B). The adsorbed proteins were then treated with PIMT enzyme for 16 h at 37° C. After incubation the enzyme solution was removed by washing. EA.hy926 cell adhesion assay was then performed as described in Materials and Methods.
The effect of protei nL-isoAsp/D-As pO-methyltransferase (PIMT) on the pro-adhesive properties of different fragments was investigated as follows: microtiter plates were coated with various products as described above and washed with 0.9% sodium chloride. Each well was then filled with 45 μl of a solution containing 0.02 mM S-adenosyl-L-methionine in 150 mM sodium chloride, 50 mM sodium phosphate buffer, pH 6.8, and 5 μl of PIMT solution (from the Isoquant Isoaspartate Detection kit, Promega) (final volume 50 μl/well) and incubated at 37° C. for 16 h. After incubation the plates were washed with 0.9% sodium chloride and cell adhesion assay was performed as described above.

The next series deals with RMA lymphoma. Description: RMA lymphoma tumor growth in mice, heat-treated FN-I5. The series is classed as in vivo, mouse. Particulars: 200 μg i.p. daily from day 4; p=0.0003 at day 14. How it is done:
(B) Anti-tumor effects of repeated administration of “heat-treated” FN-I5 to RMA-tumor bearing mice. Animals (5/group) were treated with 200 μg of “heat-treated” FN-I5 (i.p.) at the indicated times (arrows) starting 4 days after tumor implantation. * p=0.0003 at day 14, statistical analysis by two tailed t-test.
Studies on animal models were approved by the Ethical Committee of the San Raffaele H Scientific Institute and performed according to the prescribed guidelines. C57BL/6N mice (Charles River Laboratories, Calco, Italy) weighing 16-18 g were challenged with subcutaneous injection in the left flank of 7×10^4 RMA living cells; 4 days later, the mice were treated daily with 200 μg of heat-treated FN-I5 (100 μl) in 0.9% sodium chloride (i.p.). Tumor growth was monitored by measuring the tumors with calipers as previously described (Gasparri et al., 1999). Animals were sacrificed before the tumors reached 1.0-1.3 cm in diameter. Tumor sizes are shown as mean±SE (5 animals/group).

For series [6], the system named is EA.hy926 cell adhesion to vitronectin. Description: inhibition of EA.hy926 cell adhesion to vitronectin. The series is classed as cell-based, human. The following applies: vitronectin 3 μg/ml coated. The procedure: (A) Inhibition of EA.hy926 cell adhesion to vitronectin by heat-treated FN-I5. Vitronectin (3 μg/ml) was adsorbed to microtiter plate and cell adhesion assay was performed as described in Materials and Methods.
as §2

The target in series [7] is T1, αvβ3 integrin. As to the kind of experiment: competitive binding of biotinylated NGR-TNF to αvβ3 coated plates. The following applies: FN-I5 incubated at 37° C. in DMEM. How it is done: Biotinylated NGR-TNF (4 μg/ml) was mixed with different amount of the indicated peptides and added to αvβ3 coated plates. Binding was detected as described in Materials and Methods. IC50 was determined by nonlinear regression analysis using the GraphPad Prism software. The kinetics of deamidation of FN-I5 was determined by plotting the inhibitory concentration (IC50) versus the incubation times. Bars represent the confidence intervals for each determined IC50.
Human αvβ3, αvβ5, α5β1 and α1β1 integrins solutions, 0.5-2 μg/ml in phosphate buffered saline with Ca^2+ and Mg^2+ (DPBS, Cambrex), were added to 96-well polyvinylchloride microtiter plates (50 μl/well) and left to incubate overnight at 4° C. All subsequent steps were carried out at room temperature. […] Bound peroxidase was detected by adding o-phenylendiammine chromogenic substrate.
as §1

T1 sequence (P06756 31-889 limits assumed): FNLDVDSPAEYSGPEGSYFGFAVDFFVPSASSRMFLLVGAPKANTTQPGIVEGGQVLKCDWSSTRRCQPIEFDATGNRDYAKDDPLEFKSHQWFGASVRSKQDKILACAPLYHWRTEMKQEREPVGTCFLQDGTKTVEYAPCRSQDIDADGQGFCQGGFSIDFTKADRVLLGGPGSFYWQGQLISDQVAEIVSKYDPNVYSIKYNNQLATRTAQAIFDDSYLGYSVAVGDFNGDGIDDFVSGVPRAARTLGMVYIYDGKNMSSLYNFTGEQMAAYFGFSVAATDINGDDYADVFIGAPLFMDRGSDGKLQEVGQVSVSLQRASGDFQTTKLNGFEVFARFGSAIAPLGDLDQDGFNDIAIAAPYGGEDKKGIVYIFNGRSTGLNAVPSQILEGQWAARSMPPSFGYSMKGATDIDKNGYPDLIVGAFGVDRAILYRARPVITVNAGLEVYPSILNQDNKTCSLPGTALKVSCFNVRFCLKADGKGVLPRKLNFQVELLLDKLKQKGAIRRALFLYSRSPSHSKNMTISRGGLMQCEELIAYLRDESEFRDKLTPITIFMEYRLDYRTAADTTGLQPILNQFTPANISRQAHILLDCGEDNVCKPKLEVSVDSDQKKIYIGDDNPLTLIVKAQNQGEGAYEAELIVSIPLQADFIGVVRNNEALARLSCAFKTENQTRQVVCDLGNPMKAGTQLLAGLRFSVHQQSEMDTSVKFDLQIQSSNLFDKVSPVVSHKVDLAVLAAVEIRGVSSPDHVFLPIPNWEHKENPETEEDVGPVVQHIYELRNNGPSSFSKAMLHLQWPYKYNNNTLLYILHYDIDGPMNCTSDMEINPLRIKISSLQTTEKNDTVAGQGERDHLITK
T1 sequence (P06756 891-1048 partner limits assumed): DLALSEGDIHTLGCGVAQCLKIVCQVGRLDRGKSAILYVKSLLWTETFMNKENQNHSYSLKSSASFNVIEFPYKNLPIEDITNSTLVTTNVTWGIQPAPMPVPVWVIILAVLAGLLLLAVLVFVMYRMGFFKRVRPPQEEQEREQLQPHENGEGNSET
T1 sequence (P05106 27-788): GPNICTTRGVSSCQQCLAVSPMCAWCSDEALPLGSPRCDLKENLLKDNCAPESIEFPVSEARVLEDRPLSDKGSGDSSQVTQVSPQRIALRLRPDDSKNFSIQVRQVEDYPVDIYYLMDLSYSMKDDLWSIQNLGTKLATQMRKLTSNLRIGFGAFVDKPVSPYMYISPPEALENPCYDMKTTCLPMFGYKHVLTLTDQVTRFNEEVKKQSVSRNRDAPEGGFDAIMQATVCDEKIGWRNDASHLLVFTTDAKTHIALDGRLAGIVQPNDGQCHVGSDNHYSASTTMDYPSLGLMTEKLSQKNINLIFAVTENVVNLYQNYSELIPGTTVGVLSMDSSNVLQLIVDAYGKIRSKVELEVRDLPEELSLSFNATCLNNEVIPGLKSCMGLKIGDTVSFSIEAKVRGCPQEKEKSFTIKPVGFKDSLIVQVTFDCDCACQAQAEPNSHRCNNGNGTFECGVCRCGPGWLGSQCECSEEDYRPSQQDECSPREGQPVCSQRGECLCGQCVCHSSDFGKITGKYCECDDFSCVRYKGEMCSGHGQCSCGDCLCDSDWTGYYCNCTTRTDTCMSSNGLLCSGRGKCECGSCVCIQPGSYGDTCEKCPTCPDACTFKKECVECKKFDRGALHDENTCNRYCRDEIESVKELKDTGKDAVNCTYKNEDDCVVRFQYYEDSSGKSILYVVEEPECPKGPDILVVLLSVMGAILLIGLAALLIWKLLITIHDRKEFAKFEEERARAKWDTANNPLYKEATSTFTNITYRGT

With “TNF: murine TNF by recombinant DNA technology; in b159 bolus TNF in humans (literature) [reference compound]”, in the series with L-M mouse fibroblasts, the “Cytolytic Activity” value is 8 × 10^8 U/mg. Also, the maximum tolerated dose in [1] is reported as 218-410 μg/m^2. Further, the “binding to αvβ3” value in the series with αvβ3 integrin [2] (heat-treated products, in words) is reported as “No binding”. Also, in series [3], the “isoAsp (%)” value was 2.6%. For the same molecule, the “EA.hy926 cell adhesion to coated product after heat-treatment” value in the series with EA.hy926 cells [4] is given as “No adhesion”. For the same molecule, the “EA.hy926 cell adhesion to coated product” value in the series on EA.hy926 cells [4] (before heat treatment) was “No adhesion”.

In the case of “heat-treated FN-I5: FN-I5 incubated in 0.1 M ammonium bicarbonate buffer, pH 8.5, 16 h at 37° C. (deamidated)”, the “effect of PIMT on pro-adhesive activity” value in the series on EA.hy926 cells [5] is given as “almost completely inhibited”. The “tumor growth in RMA lymphoma bearing mice” value in the series with RMA lymphoma is given as “significantly inhibited tumor growth”. Also, the “inhibition of adhesion of EA.hy926 cells to vitronectin” value in series [6] is listed as “could inhibit”.

With “FN-I5: synthetic peptide, 5th type I repeat of human fibronectin, residues 230-274, additional N-terminal acetyl-glycine, Glu250 in place of Asp250”, the “incubation time to maximal competitive binding activity” value in the series with αvβ3 integrin [7] was 24 to 48 h.

B1: Cys-Asn-Gly-Arg-Cys-Gly-(SEQ ID NO: 7)TNF (protein)
chain: CNGRCGLRSSSQNSSDKPVAHVVANHQVEEQLEWLSQRANALLANGMDLKDNQLVVPADGLYLVYSQVLFKGQGCPDYVLLTHTVSRFAISYQEKVNLLSAVKSPCPKDTPEGAELKPWYEPIYLGGVFQLEKGDQLSAEVNLPKYLDFAESGQVYFGVIAL
notes: murine TNF fused with the C-terminus of CNGRCG, recombinant
Regarding B1, the “cytolytic activity after heat treatment” value in the series on L-M mouse fibroblasts (0.1 M ammonium bicarbonate buffer, pH 8.5, 37° C., 4 h of treatment) is listed as “no loss of cytolytic activity”. Besides, the “Cytolytic Activity” value with L-M mouse fibroblasts is on record as 2.96 (±0.56)×10^8 U/mg; in the series on L-M mouse fibroblasts (listed as NGR-TNF) it was 2.9 × 10^8 U/mg. In addition, the “binding to αvβ3 before heat treatment” value in the series with αvβ3 integrin [2] (untreated, data not shown) is listed as “to a lower extent”. In addition, the isoAsp content after heat treatment in series [3] (0.1 M ammonium bicarbonate pH 8.5, 16 h, 37° C.) is > 0.5 mol isoAsp/mol CNGRC-TNF subunit. In addition, the “isoAsp (%)” value in [3] came out at 29.8%. In the series on EA.hy926 cells [4], the “EA.hy926 cell adhesion to coated product after heat-treatment” value is given as “increased cell adhesion”.

B2: heat-treated CNGRC-TNF: CNGRC-TNF incubated in 0.1 M ammonium bicarbonate buffer, pH 8.5, 16 h at 37° C. (protein)
chain: CNGRCGLRSSSQNSSDKPVAHVVANHQVEEQLEWLSQRANALLANGMDLKDNQLVVPADGLYLVYSQVLFKGQGCPDYVLLTHTVSRFAISYQEKVNLLSAVKSPCPKDTPEGAELKPWYEPIYLGGVFQLEKGDQLSAEVNLPKYLDFAESGQVYFGVIAL
On to B2, for which the “effect of PIMT on pro-adhesive activity” value with EA.hy926 cells [5] is “almost completely inhibited”.
